Results: PMC2064523 (The Journal of Cell Biology, 2006)

How the values were obtained:
[1] = biological target: Human full-length vinculin (residues 1–1,066) (human) (UniProt P18206); experiment: SPR
[2] = biological target: Vh1 domain of human vinculin (residues 1–258) (human) (UniProt P18206); experiment: SPR
[3] = biological target: Vh1 domain of human vinculin (residues 1–258) (human) (UniProt P18206); experiment: native gel or EMSA
[4] = biological target: T1, Vh1 domain of human vinculin (residues 1–258) (human, UniProt P18206 1-258); experiment: crystal structure
T1 sequence (looked up): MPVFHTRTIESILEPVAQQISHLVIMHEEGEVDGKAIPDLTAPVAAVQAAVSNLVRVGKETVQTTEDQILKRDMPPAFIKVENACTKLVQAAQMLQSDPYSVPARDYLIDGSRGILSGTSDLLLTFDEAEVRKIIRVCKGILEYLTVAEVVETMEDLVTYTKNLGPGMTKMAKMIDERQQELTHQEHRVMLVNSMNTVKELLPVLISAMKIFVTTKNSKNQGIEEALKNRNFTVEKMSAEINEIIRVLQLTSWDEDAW

[5] = biological target: T1, Vh1 domain of human vinculin (residues …); experiment: SPR
[6] = biological target: T1, Vh1 domain of human vinculin (residues …); experiment: native gel or EMSA

Question: Which Kd [1] does the source give for “IpaA-Cterm (C-terminal domain of IpaA, residues 559–633) (from UniProt P18010 559-633) (domain or fragment)” here?
Answer: 35.2 pM

Question: And the Kd [2]?
Answer: 0.0062 pM

Question: And the stoichiometry N [3]?
Answer: 1

Question: For IpaA-VBS2-Y567I peptide, which Kd [2] is on record?
Answer: 15000 pM

B1: IpaA residues 602–633 (containing the IpaA-VBS), peptide of the crystal structure (peptide, UniProt P18010 602-633, looked up)
peptide: NNDITAENNNIYKAAKDVTTSLSKVLKNINKD
Question: Does B1 bind [4]?
Answer: binds

B2: IpaA-VBS peptide (IpaA residues 611–633) (peptide, UniProt P18010 611-633, looked up)
peptide: NIYKAAKDVTTSLSKVLKNINKD
Question: How did the Kd [5] turn out when B2 was run?
Answer: 110 pM

B3: IpaA-VBS-Y613I peptide (peptide)
peptide: NIIKAAKDVTTSLSKVLKNINKD
Question: Which Kd [5] does the source give for B3 here?
Answer: 270 pM

B4: Vt domain of human vinculin (residues 879–1,066) (domain or fragment, UniProt P18206-2 879-1066, looked up)
chain: EEKDEEFPEQKAGEVINQPMMMAARQLHDEARKWSSKGNDIIAAAKRMALLMAEMSRLVRGGSGTKRALIQCAKDIAKASDEVTRLAKEVAKQCTDKRIRTNLLQVCERIPTISTQLKILSTVKATMLGRTNISDEESEQATEMLVHNAQNLMQSVKETVREAEAASIKIRTDAGFTLRWVRKTPWYQ
Question: Does B4 bind [6]?
Answer: binds

B5: IpaA-VBS2 peptide (IpaA residues 565–587) (peptide, UniProt P18010 565-587, looked up)
peptide: AIYEKAKEVSSALSKVLSKIDDT
Question: With B5 as the molecule, how does the Kd [5] read?
Answer: 6610 pM

B6: IpaA-VBS2-K569A peptide (peptide)
peptide: AIYEAAKEVSSALSKVLSKIDDT
Question: B6 was tested. Which Kd [5] did it give?
Answer: 530 pM
